The chains are these.
B1: peptide CGLYDGMEHL (SEQ ID NO: 98) (peptide)
peptide: H-CGLYDGMEHL-OH
B2: peptide CMGLYDGMEHL (SEQ ID NO: 91) (peptide)
peptide: CMGLYDGMEHL
B3: peptide CAGLYDGMEHL (SEQ ID NO: 89) (peptide)
peptide: CAGLYDGMEHL
B4: peptide CLGLYDGMEHL (SEQ ID NO: 90) (peptide)
peptide: CLGLYDGMEHL
B5: peptide CMVLQELNVTV (SEQ ID NO: 94) (peptide)
peptide: CMVLQELNVTV
B6: peptide CLVLQELNVTV (SEQ ID NO: 93) (peptide)
peptide: CLVLQELNVTV
B7: peptide CAVLQELNVTV (SEQ ID NO: 92) (peptide)
peptide: CAVLQELNVTV
B8: peptide CVLQELNVTV (SEQ ID NO: 99) (peptide)
peptide: CVLQELNVTV
B9: peptide CEGLYDGMEHL (SEQ ID NO: 163) (peptide)
peptide: CEGLYDGMEHL
B10: peptide CGGLYDGMEHL (SEQ ID NO: 164) (peptide)
peptide: CGGLYDGMEHL
B11: peptide CHGLYDGMEHL (SEQ ID NO: 165) (peptide)
peptide: CHGLYDGMEHL
B12: peptide CPGLYDGMEHL (SEQ ID NO: 169) (peptide)
peptide: CPGLYDGMEHL
B13: peptide CKGLYDGMEHL (SEQ ID NO: 167) (peptide)
peptide: CKGLYDGMEHL
B14: peptide CFGLYDGMEHL (SEQ ID NO: 168) (peptide)
peptide: CFGLYDGMEHL
B15: peptide CQGLYDGMEHL (SEQ ID NO: 162) (peptide)
peptide: CQGLYDGMEHL
B16: peptide CIGLYDGMEHL (SEQ ID NO: 166) (peptide)
peptide: CIGLYDGMEHL
B17: peptide CNGLYDGMEHL (SEQ ID NO: 175) (peptide)
peptide: CNGLYDGMEHL
B18: peptide CVGLYDGMEHL (SEQ ID NO: 173) (peptide)
peptide: CVGLYDGMEHL
B19: peptide CYGLYDGMEHL (SEQ ID NO: 172) (peptide)
peptide: CYGLYDGMEHL
B20: peptide CSGLYDGMEHL (SEQ ID NO: 177) (peptide)
peptide: CSGLYDGMEHL
B21: peptide CRGLYDGMEHL (SEQ ID NO: 174) (peptide)
peptide: CRGLYDGMEHL
B22: peptide CWGLYDGMEHL (SEQ ID NO: 171) (peptide)
peptide: CWGLYDGMEHL
B23: peptide CDGLYDGMEHL (SEQ ID NO: 176) (peptide)
peptide: CDGLYDGMEHL
B24: peptide CTGLYDGMEHL (SEQ ID NO: 170) (peptide)
peptide: CTGLYDGMEHL
B25: peptide YCGLYDGMEHL (SEQ ID NO: 183) (peptide)
peptide: YCGLYDGMEHL
B26: peptide RCGLYDGMEHL (SEQ ID NO: 186) (peptide)
peptide: RCGLYDGMEHL
B27: peptide TCGLYDGMEHL (SEQ ID NO: 181) (peptide)
peptide: TCGLYDGMEHL
B28: peptide PCGLYDGMEHL (SEQ ID NO: 179) (peptide)
peptide: PCGLYDGMEHL
B29: peptide ACGLYDGMEHL (SEQ ID NO: 185) (peptide)
peptide: ACGLYDGMEHL
B30: peptide VCGLYDGMEHL (SEQ ID NO: 184) (peptide)
peptide: VCGLYDGMEHL
B31: peptide WCGLYDGMEHL (SEQ ID NO: 182) (peptide)
peptide: WCGLYDGMEHL
B32: peptide SCGLYDGMEHL (SEQ ID NO: 180) (peptide)
peptide: SCGLYDGMEHL
B33: peptide QCGLYDGMEHL (SEQ ID NO: 178) (peptide)
peptide: QCGLYDGMEHL
B34: peptide LCGLYDGMEHL (SEQ ID NO: 193) (peptide)
peptide: LCGLYDGMEHL
B35: peptide NCGLYDGMEHL (SEQ ID NO: 187) (peptide)
peptide: NCGLYDGMEHL
B36: peptide HCGLYDGMEHL (SEQ ID NO: 191) (peptide)
peptide: HCGLYDGMEHL
B37: peptide DCGLYDGMEHL (SEQ ID NO: 188) (peptide)
peptide: DCGLYDGMEHL
B38: peptide KCGLYDGMEHL (SEQ ID NO: 194) (peptide)
peptide: KCGLYDGMEHL
B39: peptide ICGLYDGMEHL (SEQ ID NO: 192) (peptide)
peptide: ICGLYDGMEHL
B40: peptide ECGLYDGMEHL (SEQ ID NO: 189) (peptide)
peptide: ECGLYDGMEHL
B41: peptide FCGLYDGMEHL (SEQ ID NO: 196) (peptide)
peptide: FCGLYDGMEHL
B42: peptide GCGLYDGMEHL (SEQ ID NO: 190) (peptide)
peptide: GCGLYDGMEHL
B43: peptide MCGLYDGMEHL (SEQ ID NO: 195) (peptide)
peptide: MCGLYDGMEHL
B44: peptide GCVLQELNVTV (SEQ ID NO: 149) (peptide)
peptide: GCVLQELNVTV
B45: peptide SCVLQELNVTV (SEQ ID NO: 157) (peptide)
peptide: SCVLQELNVTV
B46: peptide ACVLQELNVTV (SEQ ID NO: 143) (peptide)
peptide: ACVLQELNVTV
B47: peptide YCVLQELNVTV (SEQ ID NO: 160) (peptide)
peptide: YCVLQELNVTV

The first assay deals with T1, Endoplasmic reticulum aminopeptidase 1 (ERAP1) (UniProt Q9NZ08 1-941, limits assumed). Nature of the assay: cell-based or functional assay.
T1 sequence (Q9NZ08 whole entry): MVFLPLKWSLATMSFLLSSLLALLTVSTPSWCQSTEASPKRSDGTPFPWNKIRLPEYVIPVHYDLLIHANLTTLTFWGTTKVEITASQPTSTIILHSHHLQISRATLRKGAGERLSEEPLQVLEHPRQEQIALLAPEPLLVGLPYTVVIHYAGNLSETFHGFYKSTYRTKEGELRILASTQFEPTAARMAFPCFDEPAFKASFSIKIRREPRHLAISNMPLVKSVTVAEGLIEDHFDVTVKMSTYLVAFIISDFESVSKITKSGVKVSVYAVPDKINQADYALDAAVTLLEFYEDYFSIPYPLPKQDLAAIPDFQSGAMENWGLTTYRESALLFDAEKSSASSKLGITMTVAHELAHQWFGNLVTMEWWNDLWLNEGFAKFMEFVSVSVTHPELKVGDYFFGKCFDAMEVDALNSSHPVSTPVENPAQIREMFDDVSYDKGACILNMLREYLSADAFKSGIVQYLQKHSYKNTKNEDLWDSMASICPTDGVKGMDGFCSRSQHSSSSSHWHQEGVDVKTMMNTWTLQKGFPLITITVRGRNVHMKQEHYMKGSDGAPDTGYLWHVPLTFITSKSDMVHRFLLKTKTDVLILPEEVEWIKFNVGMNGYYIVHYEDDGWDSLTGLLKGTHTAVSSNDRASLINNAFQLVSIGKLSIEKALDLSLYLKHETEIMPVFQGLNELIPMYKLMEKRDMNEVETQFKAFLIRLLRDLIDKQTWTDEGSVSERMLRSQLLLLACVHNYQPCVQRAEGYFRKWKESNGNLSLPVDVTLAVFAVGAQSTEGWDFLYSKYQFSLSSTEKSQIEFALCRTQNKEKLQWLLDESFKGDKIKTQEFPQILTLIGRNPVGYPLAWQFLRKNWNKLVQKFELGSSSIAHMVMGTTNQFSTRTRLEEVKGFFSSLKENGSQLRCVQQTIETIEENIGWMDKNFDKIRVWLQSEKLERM
Turning to B1, the “formation rate (%) 1 hr later” value was determined as 95.1%, the “formation rate (%) 2 hr later” value was 106%, the “formation rate (%) 4 hr later” value was found to be 100% and the “formation rate (%) 8 hr later” value was determined as 101%.

Take B2: the “formation rate (%) 1 hr later” value was found to be 90.6%, the “formation rate (%) 2 hr later” value amounted to 103%, the “formation rate (%) 4 hr later” value came to 96% and the “formation rate (%) 8 hr later” value is 101%. Taken in the same sequence, the figures for B3 were 87.8%, 99.4%, 103% and 97.5%. The matching figures for B4: 58.3%, 94.9%, 88.4% and 88.3%. With B5, the “formation rate (%) 1 hr later” value was found to be 28.7%, the “formation rate (%) 2 hr later” value turned out to be 34.5%, the “formation rate (%) 4 hr later” value was 36.5% and the “formation rate (%) 8 hr later” value came to 36.8%. As to B6, the “formation rate (%) 1 hr later” value is 31.1%, the “formation rate (%) 2 hr later” value came to 36.9%, the “formation rate (%) 4 hr later” value was determined as 38.1% and the “formation rate (%) 8 hr later” value came to 36.1%.

For B7, the “formation rate (%) 1 hr later” value was 46.1%, the “formation rate (%) 2 hr later” value was found to be 49.9%, the “formation rate (%) 4 hr later” value is 51.3% and the “formation rate (%) 8 hr later” value was determined as 53.5%.

For the molecule B8, the “formation rate (%) 1 hr later” value came out at 83.4%, the “formation rate (%) 2 hr later” value came out at 85.6%, the “formation rate (%) 4 hr later” value came out at 78.8% and the “formation rate (%) 8 hr later” value turned out to be 83.9%.

Another assay deals with T1, Endoplasmic reticulum aminopeptidase 1 …. Nature of the assay: cell-based or functional assay. The source holds these as a separate data set.
With B9, the “formation rate of … (SEQ ID NO: 19)(%)” value came out at 6.2%. On the same count and under the same terms, with B10 the figure was 0%. The same measure, in the same setting: with B11 the figure was 0%. For the molecule B12, the “formation rate of … (SEQ ID NO: 19)(%)” value worked out at 0%. Same read-out and setting: with B13 the figure was 0%; with B14, 0%; with B15, 56.9%. On the same count and under the same terms, with B16 the figure was 0.4%.

A further assay shares this target. Nature of the assay: cell-based or functional assay. This is another data set of the same source.
For B17, the “formation rate of … (SEQ ID NO: 19)(%)” value turned out to be 82.2%. Still for that read-out and setting: the same measure for B18: 0%; for B19: 0%. Still for that read-out and setting: the same measure for B20: 1.1%; for B21: 0%; for B22: 0%.

Turning to B23, the “formation rate of … (SEQ ID NO: 19)(%)” value was 25%. The same measure, in the same setting: the same measure for B24: 89.4%.

For the next assay the target is unchanged. Nature of the assay: cell-based or functional assay. This is another data set of the same source.
Take B25: the “formation rate of … (SEQ ID NO: 19)(%)” value was 5.7%. Still for that read-out and setting: with B26 the figure was 0%; with B27, 7.3%. Same read-out and setting: with B28 the figure was 19.2%; with B29, 5.2%; with B30, 2.4%. On the same count and under the same terms, with B31 the figure was 0%. Turning to B32, the “formation rate of … (SEQ ID NO: 19)(%)” value was 22.2%. Still for that read-out and setting: with B33 the figure was 3.6%.

For another assay the target is unchanged. Nature of the assay: cell-based or functional assay. This is another data set of the same source.
In the case of B34, the “formation rate of … (SEQ ID NO: 19)(%)” value came out at 0%. Still for that read-out and setting: the same measure for B35: 18.2%. Same read-out and setting: the same measure for B36: 0%. As for B37, the “formation rate of … (SEQ ID NO: 19)(%)” value stood at 3.2%. As to B38, the “formation rate of … (SEQ ID NO: 19)(%)” value was 0%.

Take B39: the “formation rate of … (SEQ ID NO: 19)(%)” value came to 0%. As to B40, the “formation rate of … (SEQ ID NO: 19)(%)” value stood at 2.9%.

B41: the “formation rate of … (SEQ ID NO: 19)(%)” value stood at 17.6%. Turning to B42, the “formation rate of … (SEQ ID NO: 19)(%)” value came to 10.4%. Regarding B43, the “formation rate of … (SEQ ID NO: 19)(%)” value worked out at 5.8%.

For a further assay the target is unchanged. Nature of the assay: cell-based or functional assay. The source holds these as a separate data set.
Take B44: the “formation rate of … (SEQ ID NO: 43)(%)” value was determined as 1.1%. On the same count and under the same terms, the same measure for B45: 1.3%; for B46: 1.8%. On the same count and under the same terms, the same measure for B47: 0.7%.

Values taken from patent US20200171136A1 (SUMITOMO DAINIPPON PHARMA, published 2020).
